The Human Domainome abundance scans (Beltran et al. 2025)

B1: Segment polarity protein dishevelled homolog DVL-3, residues 2 to 81; numbered along this chain, Q92997 (parent)
chain: GETKIIYHLDGQETPYLVKLPLPAERVTLADFKGVLQRPSYKFFFKSMDDDFGVVKEEISDDNAKLPCFNGRVVSWLVSA

Variants of: B1
Assay: abundance fitness (aPCA) (normalised: wild type 0, dead -1); higher = more abundant; growth selection in yeast, the domain comes from the species named
Conditions: Homo sapiens

Abundance fitness, by site and new letter:
M48: F -0.121 | V 0.125 | K 0.039 | T 0.296 | L -0.074 | W 0.017 | H 0.056
Q37: G 0.048 | W -0.483 | C -0.078 | P 0.092 | L -0.154 | D 0.225 | Y -0.1 | V -0.124 | F -0.433 | I -0.179 | E 0.048 | M -0.048 | K 0.165 | A -0.1 | N 0.122 | H -0.073 | T -0.067
A30: R 0.034 | S -0.261 | Q -0.465 | N -0.433 | W -0.517 | Y -0.468 | T -0.795 | V -0.742
Y41: D -0.673 | L -0.624 | K -0.787 | A -0.431 | G -0.496 | E -0.486 | P -0.538 | T -0.511 | V -0.388 | H -0.304 | C -0.227 | N -0.727 | S -0.72 | W -0.331 | Q -0.403 | R -0.741
K46: H -0.132 | I -0.189 | F -0.488 | M -0.081 | W -0.227 | T -0.392 | R -0.08 | N -0.046 | S -0.196 | P -0.437 | D -0.061 | Q 0.165 | V -0.407 | G -0.223 | E 0.277 | C -0.068 | L -0.138 | Y -0.401
P39: R -0.037 | K 0.194 | M 0.006 | Y -0.494 | I -0.066 | E 0 | S 0.051 | N 0.061 | A -0.14 | V -0.106 | W -0.466 | D 0.357 | H 0.073 | C -0.306 | Q 0.11 | G 0.062 | T 0.062
G34: T -0.016 | H -0.388 | C -0.213 | R 0.156 | L -0.119 | I -0.519 | D 0.418 | A 0.174 | P -1.03 | M 0.042 | N 0.291 | W -0.649 | V -0.371 | Q 0.166 | Y -0.388
D31: P -0.35 | C -0.359 | S -0.577 | V -0.448 | T -0.217 | W -0.618 | I -0.173 | Y -0.714 | F -0.742 | G -0.776 | E -0.178 | N -0.665 | H 0.282 | A -0.099 | R -0.711 | Q -0.634 | L -0.791 | M -0.047
K42: Y -0.957 | H -0.043 | N -0.421 | W -0.783 | T -0.356 | E -0.636 | V -0.841 | F 0.052 | P -0.763 | S -0.716 | L -0.86 | R 0.158 | M -0.659 | A -0.602 | Q -0.044 | D -0.953 | C -0.624
K33: I -0.939 | A -1.08 | R -0.693 | S -0.527 | F -0.661 | E -0.672 | L -0.936 | W -0.52 | H -0.631 | N -0.087 | G -0.704 | V -0.762 | P -1.13 | T -0.618 | C -0.589 | D -1.06 | Q -0.94
F32: G -0.916 | E -0.649 | H -0.447 | P -0.686 | Y -0.544 | L -0.337 | I -0.469 | Q -0.855 | N -1.28 | W -0.61 | K -1.01 | T -0.598 | V -0.819 | M -0.624 | A -0.622 | R -0.543 | D -0.688
